According to patent US20230303681A1 (published 2023):
Numbering of substitutions follows the chain as printed. Values joined by “and” are separate entries in the source; they are usually repeats but may differ in a detail not shown here. Identical values can stand only once.

B1: anti-TMEM106B antibody TM-10 (antibody, V domains shown)
VH: QVQLQQSGAELVKPGASVKISCKGSGYAFSSYWMNWVKQRPGKGLEWIGQIYPGDGDTNYNGKFKGKATLTADKSSTTAYIHLSSLTSEDSAVYFCARWGHYDEAMDDWGQGTSVTVSS
VL: DVVMTQTPLSLPVSLGDQASISCRSSQSLVHSNGKTYLHWYVQKPGQSPKLLIYKISNRFSGVPDRFSGSGSGTDFTLKISRVEAEDLGVYFCSQITHVPWTFGGGTKLESK
B2: anti-TMEM106B antibody TM-16 (antibody, V domains shown)
VH: EVQLQQSGAELVRPGASVKLSCTTSGFNIKDYYMHWVKQRTEQGLEWIGRIDPEDGETKYAPEFQGKATITSDTSSNTAFLQLSSLTSEDTAVYYCASSQPFTYWGQGTLVTVSA
VL: QIVLTQSPAIMSASPGEKLTMTCSASSSLNYMYWYQQKPGSSPRLLIYDTSNLASGVPVRFSGSGSGTSYSLTISRMEAEDGATYYCQQWTSFPPTFGAGTKLELK
B3: anti-TMEM106B antibody TM-17 (antibody, V domains shown)
VH: QVQLQQSGAELIRPGTSVKVSCKASGYAFTDYLIEWVKQRPGQGLEWIGVINPGSGGTNYNEKFKGKAKLTADKSSSTAYMQLSSLTSEDSAVYFCVRSSYGVYVAYPMDYWGQGTSVTVSS
VL: DIQMTQSPSSLSASLGERVSLTCRASQDIGSNLNWLQQEPDGTIKRLIYATSSLDSGVPKRFSGSRSGSDYSLTISSLESEDFVDYYCLQYASSPRTFGGGTKLEIK
B4: anti-TMEM106B antibody TM-11 (antibody, V domains shown)
VH: QVQLKQSGPGQVQPSQSLSITCTVSGFSLSDYGVHWVRQSPGKGLEWLGVIWNNGNTDYNAAFISRLSINKDNSKSQVFFKMTSLQADDTAIYYCVRSLRPLHFDYWGQGTTVTVSS
VL: DIVMTQSPSSLTMSVGQKVTMHCKSSQSLLNSNNLQNYLAWYQQKPGQSPTLLVYFASIRESGVPDRFIGSGSGTDFTLTISSVQAEDLADYFCQQHYNTPFTFGSGTKLEIR
B5: anti-TMEM106B antibody TM-24 (antibody, V domains shown)
VH: B4 VH
VL: B4 VL with H22N, L35Q, T51K, S82N, N99S
notes: mouse IgG from hybridoma
B6: anti-TMEM106B antibody TM-21 (antibody, V domains shown)
VH: EVQLVESGGGLVKPGGSLKLSCAASGFTFSNYAMSWVRETPEKRLEWVAFISDGGGYIYYADNVKDRFTISRDNAKNNLYLQMRHLKSEDTAMYYCARDGGTGFTYWGQGTLVTVSV
VL: DIVMTQAAFSNPVTLGTSASISCRSSKSLLHSNGITYLFWYLQKPGQSPQLLIYQMSNLASGVPDRFSSSGSGTDFTLRISRVEAEDVGVYYCVQNLELPYTFGGGTKLEIK
B7: anti-TMEM106B antibody TM-12 (antibody, V domains shown)
VH: EVQLQQSGAELMRPGASVKLSCTASGFNIQDYYMYWVKQRPEQGLEWIGRIDPEDGDAEYAPKFQGKATMTADTSSNTAYLQLSSLTSEDTAVYYCSTRVIYDGYYRTMDCWGQGTSVTVSS
VL: DVLMTQIPLSLPVSLGDQASISCRSSQTIVHSNGNTYLEWYLKKPGQSPKLLIDKISNRFSGVPDRFSGSGSGTDFTLKISRVEAEDLGVYYCFQGSHVPYTFGGGTKLEIK
B8: anti-TMEM106B antibody TM-30 (antibody, V domains shown)
VH: QVQLQQSGPELVKPGASVKLSCKASDNTFTNYDVNWVRQRPGQGLEWIGWIYPRDGTTIYNEKFKGRATLTVDTSSSTAYMELHSLTSEDSAVFFCARTLPQAMDYWGQGTSVTVSS
VL: B7 VL with I7S, A19V, S32R, K43Q, D54Y, I56V, V99L, Y101W
notes: mouse IgG from hybridoma
B9: anti-TMEM106B antibody TM-32 (antibody, V domains shown)
VH: EVQLQQSGAELVRPGASVRLSCIASGFNIKDYYMYWVKQRPEQGLEWIGRIDPEDGDTEYVPKFQGKATMTADTSSNTAYLQLSSLTSEDIGVYYCTTRTWDLYYAVDNWGQGTSVTVSS
VL: B7 VL with I7T, T28N, K43Q, I56V, V90I, Y101F, G105S
B10: anti-TMEM106B antibody TM-44 (antibody, V domains shown)
VH: EVQLVESGGGLVKPGGSLKLSCAASGFTFSDYGMHWVRQAPEKGLEWVAYISSGSSTIYYADTVKGRFTISRDNAKNTLFLQMTSLRSEDTAMYYCARNYGSPYAMDYWGQGTSVTVSS
VL: not shown
notes: mouse IgG from hybridoma
B11: anti-TMEM106B antibody TM-20 (antibody, V domains shown)
VH: B2 VH
VL: B2 VL with S62R

Target: T1, human TMEM106B (human, UniProt Q9NUM4 2-274)
T1 construct: Full-length, on transiently transfected HEK293 cells, or natively expressed on HeLa, U251 and A549 cells; also called huTMEM106B; huTMEM
Test: FACS A549, 1 ug/ml
Experimental: (§1) Purified anti-TMEM106B antibodies were evaluated for their binding affinity to various TMEM106B-expressing cell lines including HEK293 transiently transfected with human/cyno/mouse TMEM106B, as well as HeLa cells and A549 cells. Antibodies tested for this experiment were mouse IgGs purified from hybridoma supernatant. Affinity binding to cells was determined as follows. Briefly, 1x10^5 cells were aliquoted per well in 96-well round bottom plates and incubated with 50 µL of purified anti-TMEM106B antibody at various concentrations (10x dilutions starting at 10 µg/ml) in FACS buffer (PBS + 2% FBS + 1 mM EDTA). […] Sorting was performed on a iQue (Intellicyt), with sort gates drawn to exclude dead (propidium iodide +) cells. Binding data was analyzed using median fluorescent intensity (MFI) and graphed in Prism. Values presented are MFI.

First: B1
Second: B2
The MFI of the first is higher: 663 for the first, 409 for the second.

First: B3
Second: B4
The MFI of the first is lower: 379 for the first, 2870 for the second.

Going from B5 to B6, the MFI falls from 2880 to 2030.

Compared with B7, B8 is lower in MFI: 3150 for the first, 3030 for the second.

Compared with B9, B10 is lower in MFI: 3930 for the first, 404 for the second.

Target: T1, human TMEM106B
Test: FACS HEK+huTMEM, 0.01 ug/ml
Experimental: as §1

Going from B1 to B2, the MFI falls from 3360 to 351.

Compared with B3, B4 is higher in MFI: 1150 for the first, 4280 for the second.

First: B5
Second: B6
The MFI of the first is higher: 3620 for the first, 2350 for the second.

Compared with B7, B8 is lower in MFI: 3340 for the first, 3070 for the second.

First: B9
Second: B10
The MFI of the first is higher: 4100 for the first, 300 for the second.

Target: T2, mouse TMEM106B (mouse, UniProt Q80X71 2-275)
T2 construct: on transiently transfected HEK293 cells, or natively expressed on mouse Neuro2a cells; also called moTMEM106B; murine TMEM106B
Test: FACS, HEK293 transfectants;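 for fold over negative controls: hybridoma supernatants incubated 30 min on ice with human TMEM106B-expressing HEK293 cells, binding read as anti-mouse-APC median fluorescence on live cells, relative to secondary-antibody-only wells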;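 for fold-change over parental HEK293: flow cytometry binding of hybridoma supernatants to HEK293 cells transiently expressing human, cyno or mouse TMEM106B, read as anti-mouse-APC median fluorescence, live cells only, 30 min on ice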

Compared with B1, B2 is lower in “fold-change over parental HEK293” value: 45.9 fold for the first, 1.42 fold for the second.

First: B3
Second: B4
The “fold-change over parental HEK293” value of the first is lower: 6.42 fold for the first, 18.3 fold for the second.

Going from B6 to B7, the “fold-change over parental HEK293” value falls from 46.5 fold to 32.7 fold.

Target: T3, cynomolgus (cyno) TMEM106B (cynomolgus, UniProt Q9NUM4 2-274 (human entry))
T3 construct: on transiently transfected HEK293 cells
Test: FACS, HEK293 transfectants;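 for fold over negative controls: hybridoma supernatants incubated 30 min on ice with human TMEM106B-expressing HEK293 cells, binding read as anti-mouse-APC median fluorescence on live cells, relative to secondary-antibody-only wells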;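 for fold-change over parental HEK293: flow cytometry binding of hybridoma supernatants to HEK293 cells transiently expressing human, cyno or mouse TMEM106B, read as anti-mouse-APC median fluorescence, live cells only, 30 min on ice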

Compared with B1, B2 is lower in “fold-change over parental HEK293” value: 65.9 fold for the first, 17.6 fold for the second.

First: B3
Second: B4
The “fold-change over parental HEK293” value of the first is lower: 14.3 fold for the first, 23.7 fold for the second.

First: B6
Second: B7
The “fold-change over parental HEK293” value of the first is higher: 48.9 fold for the first, 44.1 fold for the second.

Target: T1, human TMEM106B
Test: FACS, HEK293 transfectants;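 for fold over negative controls: hybridoma supernatants incubated 30 min on ice with human TMEM106B-expressing HEK293 cells, binding read as anti-mouse-APC median fluorescence on live cells, relative to secondary-antibody-only wells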;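 for fold-change over parental HEK293: flow cytometry binding of hybridoma supernatants to HEK293 cells transiently expressing human, cyno or mouse TMEM106B, read as anti-mouse-APC median fluorescence, live cells only, 30 min on ice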

First: B1
Second: B2
The “fold-change over parental HEK293” value of the first is higher: 37.1 fold for the first, 8.3 fold for the second.

Going from B3 to B4, the “fold-change over parental HEK293” value falls from 12.6 fold to 9.96 fold.

Going from B6 to B7, the “fold-change over parental HEK293” value falls from 29.8 fold to 25.9 fold.

Target: T4, GST (Pierce) (UniProt P08515 1-218 = GST, limits assumed)
T4 construct: control for the GST part of the fusion protein; also called GST protein; Glutathione-S-transferase
Test: ELISA, coated GST;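 note: ELISA on plates coated with GST alone at 1-10 µg/ml, antibodies applied at 100-1000x dilution, bound antibody detected by peroxidase substrate colour after acid stop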

B1: no binding.
B2: no binding.
B11: no binding.
B3: no binding.
B4: no binding.
B6: no binding.
B7: no binding.
B9: no binding.

Target: T1, human TMEM106B
Test: FACS HeLa;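 note: flow cytometry of cells incubated with hybridoma supernatant or purified antibody at 10 µg/ml for 1 h on ice, propidium iodide–positive dead cells gated out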

First: B1
Second: B2
The MFI of the first is higher: 596 for the first, 548 for the second.

Going from B3 to B4, the MFI rises from 437 to 1870.

Going from B6 to B7, the MFI rises from 1200 to 2660.

B10 was tested, and the MFI was 168.

Target: T1, human TMEM106B
Test: FACS HEK+huTMEM, 10 ug/ml;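 note: purified mouse IgG antibodies at 10 µg/ml bound to HEK293 cells transiently expressing human TMEM106B, measured by flow cytometry as median fluorescence intensity of propidium iodide negative live cells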

First: B1
Second: B2
The MFI of the first is higher: 36500 for the first, 5980 for the second.

Compared with B3, B4 is higher in MFI: 3960 for the first, 57900 for the second.

First: B5
Second: B6
The MFI of the first is lower: 66300 for the first, 69400 for the second.

First: B7
Second: B8
The MFI of the first is higher: 75300 for the first, 61500 for the second.

First: B9
Second: B10
The MFI of the first is higher: 61100 for the first, 512 for the second.

Target: T1, human TMEM106B
Test: FACS HEK+huTMEM, 1.0 ug/ml
Experimental: as §1

Compared with B1, B2 is lower in MFI: 44400 for the first, 2140 for the second.

Compared with B3, B4 is higher in MFI: 2620 for the first, 54600 for the second.

Compared with B5, B6 is higher in MFI: 64500 for the first, 69400 for the second.

First: B7
Second: B8
The MFI of the first is higher: 77800 for the first, 63500 for the second.

Compared with B9, B10 is lower in MFI: 63300 for the first, 337 for the second.

Target: T1, human TMEM106B
Test: FACS U251;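 note: flow cytometry of cells exposed to antibody (purified at 10 µg/mL, or hybridoma supernatant) for 1 h on ice, with propidium iodide-positive dead cells gated out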

First: B1
Second: B2
The MFI of the first is higher: 328 for the first, 292 for the second.

Going from B3 to B4, the MFI rises from 305 to 866.

First: B6
Second: B7
The MFI of the first is lower: 672 for the first, 1330 for the second.

B10 gave an MFI of 522.

Target: T1, human TMEM106B
Test: FACS A549

Compared with B1, B2 is lower in MFI: 823 for the first, 605 for the second.

Compared with B3, B4 is higher in MFI: 953 for the first, 1340 for the second.

First: B6
Second: B7
The MFI of the first is lower: 1030 for the first, 1940 for the second.

Binder B10 has an MFI of 392.

Target: T1, human TMEM106B
Test: FACS A549, 10 ug/ml
Experimental: as §1

Going from B1 to B2, the MFI falls from 1090 to 557.

First: B3
Second: B4
The MFI of the first is lower: 425 for the first, 5580 for the second.

Going from B5 to B6, the MFI falls from 4480 to 4230.

First: B7
Second: B8
The MFI of the first is higher: 4950 for the first, 4040 for the second.

Compared with B9, B10 is lower in MFI: 6100 for the first, 466 for the second.

Target: T5, GST-fusion human TMEM106B truncated (human)
T5 construct: also called GST-TMEM106B-truncated protein; GST-TMEM106B (truncated)
Test: array SPR, Ab immobilised;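 note: antibodies amine-coupled on an MX-96 chip, antigen flowed at 500 nM top concentration in 5-fold serial dilutions, GST alone run as nonspecific-binding control, duplicate measurements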
Experimental: Binding kinetic characterization of the purified antibodies was performed by Carterra using a proprietary array SPR instrument (MX-96) as follows. Briefly, antibodies were prepared by diluting to 5 µg/ml in 10 mM Acetate, pH 4.5 (Carterra), at 150 µL/well and then made an additional dilution at 1:10 from there by titrating 11 µl into 100 µL. […] The chip was activated with 18 mM EDC (Sigma Bioxtra) and 4.5 mM S-NHS (Thermo Fisher) diluted in 100 mM MES, pH 5.5, for 7 minutes, and then antibodies were coupled for 10 minutes at 45 µL/minute. After coupling, the chip was returned to the MX-96 and quenched for 7 minutes using 1 M Ethanolamine pH 8.5 (Carterra).
Printed antibodies were profiled for their ability to bind GST-TMEM106B (truncated) protein (described above). Briefly, GST-TMEM106B (truncated) antigen was diluted to 18 µg/ml (500 nM of 36 kDa fusion protein) by mixing 2.7 µL of 2.0 mg/ml antigen into 298 µL Running buffer (HBS-EP+, Teknova with 1 mg/ml BSA, Sigma), and titrated 50 µl into 200 µl for 5-fold serial dilutions. In addition, binding to GST (Pierce) was assayed under the same conditions to determine the extent of any nonspecific binding of the anti-TMEM106B antibodies to GST portion of the TMEM106B-GST fusion protein. Duplicate measurements for each anti-TMEM106B antibody were taken to ensure reproducibility.

B1 was tested, and the Kd was 17 nM and 22 nM.
With B3 the Kd was 22 nM and 28 nM.
For B6, the Kd was 2.9 nM and 4.1 nM.

In the case of B1, the koff is reported as 0.00054 s⁻¹ and 0.0006 s⁻¹.
For B3, the koff was 0.00063 s⁻¹ and 0.00097 s⁻¹.
In the case of B4, the koff is reported as 5.2e-05 s⁻¹ and 5.7e-05 s⁻¹.
In the case of B6, the koff is reported as 5.2e-05 s⁻¹ and 7.1e-05 s⁻¹.
B9 was tested, and the koff was 8.6e-05 s⁻¹ and 3.5e-05 s⁻¹.

In the case of B1, the kon is reported as 32000 M⁻¹ s⁻¹ and 28000 M⁻¹ s⁻¹.
In the case of B3, the kon is reported as 29000 M⁻¹ s⁻¹ and 35000 M⁻¹ s⁻¹.
With B4 the kon was 24000 M⁻¹ s⁻¹ and 27000 M⁻¹ s⁻¹.
B6 was tested, and the kon was 18000 M⁻¹ s⁻¹ and 17000 M⁻¹ s⁻¹.
For B7, the kon was 21000 M⁻¹ s⁻¹ and 29000 M⁻¹ s⁻¹.
B9 was tested, and the kon was 29000 M⁻¹ s⁻¹ and 40000 M⁻¹ s⁻¹.

With B4 the Kd was 2.1 nM.

Target: T2, mouse TMEM106B
Test: FACS Neuro2a;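 note: flow cytometry of cells stained with antibody or hybridoma supernatant (purified antibody at 10 µg/ml) for 1 h on ice, propidium iodide–positive dead cells gated out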

Compared with B1, B2 is lower in MFI: 604 for the first, 392 for the second.

Compared with B3, B4 is higher in MFI: 385 for the first, 1040 for the second.

Compared with B6, B7 is higher in MFI: 706 for the first, 3040 for the second.

B10 gave an MFI of 202.

Target: T1, human TMEM106B
Test: FACS, HEK293 transfectants;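 for fold over negative controls: hybridoma supernatants incubated 30 min on ice with human TMEM106B-expressing HEK293 cells, binding read as anti-mouse-APC median fluorescence on live cells, relative to secondary-antibody-only wells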;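 for fold-change over parental HEK293: flow cytometry binding of hybridoma supernatants to HEK293 cells transiently expressing human, cyno or mouse TMEM106B, read as anti-mouse-APC median fluorescence, live cells only, 30 min on ice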
Remark: another data set of the same source

B1 and B2 cannot be ordered by “fold over negative controls” value: greater than 2 fold for the first, greater than 2 fold for the second.

B3 and B4 cannot be ordered by “fold over negative controls” value: greater than 2 fold for the first, greater than 2 fold for the second.

B5 and B6 cannot be ordered by “fold over negative controls” value: greater than 2 fold for the first, greater than 2 fold for the second.

B7 and B8 cannot be ordered by “fold over negative controls” value: greater than 2 fold for the first, greater than 2 fold for the second.

For B9, the “fold over negative controls” value was greater than 2 fold.

Target: T1, human TMEM106B
Test: FACS HEK+huTMEM, 0.1 ug/ml;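 note: flow cytometry binding of purified mouse IgG antibodies to HEK293 cells transiently expressing TMEM106B, read as median fluorescence intensity with propidium iodide positive dead cells gated out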
Experimental: as §1

Going from B1 to B2, the MFI falls from 21000 to 680.

Compared with B3, B4 is higher in MFI: 1910 for the first, 16200 for the second.

Going from B5 to B6, the MFI falls from 22000 to 15600.

Going from B7 to B8, the MFI falls from 19700 to 18400.

Compared with B9, B10 is lower in MFI: 20300 for the first, 309 for the second.
